For 2 molecules, Kd, koff and kon results are on record in publication PMC8113585 (Nature Communications, 2020).

Holding throughout (conditions): both partners purified
Assay [1] has as its target T1, SARS-CoV nucleocapsid (N) protein, full length (N-FL) (Severe acute respiratory syndrome …, UniProt P59595).
T1 construct: also called SARS-CoV N protein; SARS-CoV N-FL
Nature of the assay: SPR; Biacore X100; […]; room temperature; 1:1 binding model, […]. A general note: In SPR one partner is held on a chip, and binding of the other changes the refractive index at the surface.

The target of assay [2] is T2, MERS-CoV nucleocapsid (N) protein, full length (N-FL) (MERS-CoV, strain , UniProt K9N4V7).
T2 construct: also called MERS-CoV N protein; MERS-CoV N-FL
The description is as above.

Assay [3] has as its target T3, SARS-CoV-2 nucleocapsid (N) protein, full length (N-FL, 1-419) (Severe acute respiratory syndrome …, UniProt P0DTC9).
T3 construct: also called SARS-CoV-2 N protein
The assay is described as above.

For assay [4], the target named is T4, SARS-CoV N protein (N-FL) (Severe acute respiratory syndrome …, UniProt P59595).
T4 construct: also called SARS-CoV N-FL
Nature of the assay: SPR; Biacore X100; […]; room temperature; 1:1 binding model.

The target of assay [5] is T5, SARS-CoV-2 full-length nucleocapsid (N) protein (N-FL: 1-419) (Severe acute respiratory syndrome …, UniProt P0DTC9).
T5 construct: also called SARS-CoV-2 N protein
The assay is described as above.

Assay [6] concerns the target T6, MERS-CoV N protein (N-FL) (MERS-CoV, strain , UniProt K9N4V7).
T6 construct: also called MERS-CoV N-FL; Middle East respiratory syndrome coronavirus N protein
Described as above.

B1: mAb nCoV396 (recombinant human IgG1) (antibody, V domains shown)
VH: QVQLVESGGGVVQPGRSLRLSCAASGFTFSSYIMHWVRQAPGKGLEWVAVISYDGSNEAYADSVKGRFTISRDNSKNTLYLQMSSLRAEDTGVYYCARETGDYSSSWYDSWGRGTLVTVSS
VL: QLVLTQSPSASASLGASVKLTCTLSSGHSNYAIAWHQQQPEKGPRYLMKVNSDGSHTKGDGIPDRFSGSSSGAERYLTISSLQSEDEADYYCQTWGTGIQVFGGGTKLTVL
notes: also called mAb-396; IgH ID H16030
Consider B1, for which, in assay [1], the Kd (commonly a measure of binding affinity in units of concentration) was 7.44 nM, the koff (usually a measure of how fast the partners let go of each other) is 0.000295 s⁻¹ and the kon (usually a measure of how fast the partners come together) was determined as 39700 M⁻¹ s⁻¹. Further, in assay [2], the dissociation constant (Kd) was 7.43 nM, the koff was 0.0004 s⁻¹ and the kon came to 53800 M⁻¹ s⁻¹. In assay [3], this molecule registered a koff of 2.89e-06 s⁻¹ and a kon of 2830 M⁻¹ s⁻¹.

B2: human monoclonal antibody nCoV396, recombinant IgG1 (antibody, V domains shown)
VH: QVQLVESGGGVVQPGRSLRLSCAASGFTFSSYIMHWVRQAPGKGLEWVAVISYDGSNEAYADSVKGRFTISRDNSKNTLYLQMSSLRAEDTGVYYCARETGDYSSSWYDSWGRGTLVTVSS
VL: QLVLTQSPSASASLGASVKLTCTLSSGHSNYAIAWHQQQPEKGPRYLMKVNSDGSHTKGDGIPDRFSGSSSGAERYLTISSLQSEDEADYYCQTWGTGIQVFGGGTKLTVL
notes: also called mAb nCoV396
On to B2, for which the Kd in assay [4] is 7.4 nM; in assay [5], 1.02 nM; in assay [6] it was 7.4 nM.
